These results are taken from PMC5057104, “The unravelling of the complex pattern of tyrosinase inhibition” (Scientific Reports, 2016).

Substrate in series [1]: N[C@@H](Cc1ccc(O)c(O)c1)C(=O)O
The series can be described thus: Kinetic analysis of tyrosinase (Lineweaver-Burk plots). Format: biochemical, Bacillus megaterium. The following applies: other: compound as TyrBm natural substrate; pH 7.4; 40.0 °C.

Substrate in series [2]: N[C@@H](Cc1ccc(O)cc1)C(=O)O
The description is as above. Format: biochemical, Bacillus megaterium. The following applies: other: compound as TyrBm natural substrate; pH 7.4; 40.0 °C.

B1: TyrBm (tyrosinase from Bacillus megaterium) (Priestia megaterium) (protein)
chain: MSNKYRVRKNVLHLTDTEKRDFVRTVLILKEKGIYDRYIAWHGAAGKFHTPPGSDRNAAHMSSAFLPWHREYLLRFERDLQSINPEVTLPYWEWETDAQMQDPSQSQIWSADFMGGNGNPIKDFIVDTGPFAAGRWTTIDEQGNPSGGLKRNFGATKEAPTLPTRDDVLNALKITQYDTPPWDMTSQNSFRNQLEGFINGPQLHNRVHRWVGGQMGVVPTAPNDPVFFLHHANVDRIWAVWQIIHRNQNYQPMKNGPFGQNFRDPMYPWNTTPEDVMNHRKLGYVYDIELRKSKRSS
notes: made in house; host or cells: Escherichia coli BL21
Take B1: in series [1], the Km came to 240 ± 20 µM, the Vmax amounted to 30.3 µmol/min/mg, the turnover number (kcat) amounted to 17.8 s⁻¹ and the kcat/Km amounted to 74200 M⁻¹ s⁻¹. In addition, in series [2], the Km amounted to 82 ± 6 µM, the Vmax worked out at 3.62 µmol/min/mg, the kcat came to 2.1 s⁻¹ and the kcat/Km worked out at 25600 M⁻¹ s⁻¹.

The term Km denotes the substrate concentration at which the rate is half of its maximum. The term Vmax denotes the rate approached at saturating substrate. As a reminder, the kcat is the maximal rate divided by the concentration of active sites. For orientation: kcat/Km means the second-order rate constant that governs catalysis at low substrate concentration.
